Data reported in patent US20020004214A1, “Method to detect modulators of histidine kinases” (priority 1999, published 2002).

Columns and labels:
MalE-EspB fusion protein = test: EspB autophosphorylation gel electrophoresis assay; format: biochemical, Staphylococcus aureus; settings: purified protein pretreated with 2 M or 0.5 M guanidine-HCl, then dialyzed; [γ-32P]ATP 30 minutes; vs protein not pretreated
Procedure: Enzyme autophosphorylation activity was assayed as described in Example 4 below. Samples containing equal amounts of purified MalE-EspB fusion that had either been treated or not with guanidine-HCl were incubated with [γ-^32P]ATP for 30 minutes, analyzed by polyacrylamide gel electrophoresis, and exposed to X-ray film. In FIG. 3 the bands show the autophosphorylated protein, and can be quantitated. Lanes 1 and 2 show the activity of purified protein samples that had not been pretreated with guanidine-HCl, whereas the protein samples inlanes 3 and 4 had been pretreated with 2 M and 0.5 M guanidine-HCl, respectively, and dialyzed afterwards against enzyme storage buffer. When the X-ray picture is greatly overexposed, the protein bands become also apparent on lanes 1 and 2. The experiment showes that pretreatment with guanidine-HCl activates MalE-EspB by approximately 40 to 100-fold, a likely consequence of denaturing and then refolding the purified MalE-EspB protein.
Volumes of 18.5 μl of compounds diluted in 6% DMSO or controls of 6% DMSO alone were mixed in a microcentrifuge tube with an equal volume of EspB reaction mixture (containing EspB at 0.58 mg/ml in a salt buffer of 328 mM Tris-HCl [pH 8.0], 225 mM KCl, 0.4 mM PMSF {phenylmethylsulfonyl fluoride}, 1.2 mM DTT, 0.2 mM EDTA, 9.3 mM MnCl2, and 10% glycerol). […]

[1] = target: T1, EspA cognate response regulator (UniProt Q5HJX7)
T1 sequence: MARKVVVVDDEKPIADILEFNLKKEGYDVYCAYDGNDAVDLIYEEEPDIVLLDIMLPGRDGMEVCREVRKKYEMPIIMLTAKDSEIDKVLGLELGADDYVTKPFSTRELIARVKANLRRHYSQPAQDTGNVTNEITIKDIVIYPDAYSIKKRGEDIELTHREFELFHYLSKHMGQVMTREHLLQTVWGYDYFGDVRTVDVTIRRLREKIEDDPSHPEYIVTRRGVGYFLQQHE

| Compound | activation of MalE-EspB autophosphorylation activity by pretreatment (MalE-EspB fusion protein) | transphosphorylation of EspA by EspB without Ca++, [gamma-32P]ATP, SDS-PAGE and X-ray film [1] | transphosphorylation of EspA by EspB, [gamma-32P]ATP, SDS-PAGE and X-ray film [1] |
| --- | --- | --- | --- |
| Cl.N=C(N)N [guanidine-HCl, Guanidine-HCl] | 40 to 100 fold | – | – |
| MalE-EspB fusion protein | – | this transphosphorylation requires the presence of Ca^++ whereas autophosphorylation of EspB does not (absence of the EspA band in lane 5) | EspA is unable to autophosphorylate (lane 3), but that it can be transphosphorylated by its cognate HPK EspB (lane 2) |
